Earlier results on 2 substances are cited in PMC6916721.

As usually defined, the pKa is the negative logarithm of the acid dissociation constant.

One series addresses His95 (UniProt position 121, YHCTPHPFMRG). Particulars: reduced (Cu+) amicyanin, free (not in complex with MADH).
The target of series [1] is Amicyanin, reduced (Cu+) form (UniProt P22364). Particulars: pH.
Sequence of Amicyanin, reduced (Cu+) form (P22364 whole entry): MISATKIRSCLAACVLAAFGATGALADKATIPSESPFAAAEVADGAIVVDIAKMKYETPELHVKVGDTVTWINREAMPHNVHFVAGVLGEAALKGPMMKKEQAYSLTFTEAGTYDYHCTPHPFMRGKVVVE

Consider Amicyanin (Paracoccus denitrificans), for which, in the series with His95, the pKa is 7.7. Regarding Methylamine dehydrogenase (MADH), in series [1], the pKa, His95 of amicyanin (copper ligand, reduced Cu+ state) is 7.7 pH units.
